# Experimental data as given in the supplement of paper PMC9112550, “Optimization of the antimicrobial peptide Bac7 by deep mutational scanning” (BMC Biology, 2022).
# Tested on: Escherichia coli TOP10
# Assay: shrunken log2 fold change of peptide-encoding DNA abundance (4.5 h post-induction vs induction); higher = less antimicrobial activity (less host growth inhibition)
# Conditions: time post-induction: 4.5 h; library: site-saturation at positions 5, 18, 19, 20
# 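Further: peptides expressed intracellularly from a pBAD plasmid library in pooled LB shake-flask culture, induced with 0.3% L-arabinose, DNA abundance read by NGS, three biological replicates, DESeq2 with apeglm shrinkage.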
row,Sequence,shrunken log2 fold change
1,RRIRCRPPRLPRPRPRPQYWPRP,-0.312
2,RRIRWRPPRLPRPRPRPLQGPRP,-0.21
3,RRIRWRPPRLPRPRPRPCFPPRP,-0.164
4,RRIRPRPPRLPRPRPRPADMPRP,0.0113
5,RRIRVRPPRLPRPRPRPTYEPRP,-0.152
6,RRIRVRPPRLPRPRPRPCGLPRP,-0.173
7,RRIRIRPPRLPRPRPRPKGPPRP,-0.14
8,RRIRSRPPRLPRPRPRPCSSPRP,-0.134
9,RRIRERPPRLPRPRPRPNYDPRP,-0.873
10,RRIRQRPPRLPRPRPRPVWHPRP,0.0663
11,RRIRGRPPRLPRPRPRPNINPRP,0.337
12,RRIRSRPPRLPRPRPRPLTWPRP,-0.104
13,RRIRARPPRLPRPRPRPGYQPRP,0.0478
14,RRIRKRPPRLPRPRPRPVHDPRP,0.0707
15,RRIRRRPPRLPRPRPRPNFSPRP,0.211
16,RRIRVRPPRLPRPRPRPGCIPRP,-0.0275
17,RRIRARPPRLPRPRPRPRLKPRP,0.547
18,RRIRGRPPRLPRPRPRPPFDPRP,0.835
19,RRIRLRPPRLPRPRPRPIGWPRP,0.156
20,RRIRERPPRLPRPRPRPIRQPRP,0.00357
21,RRIRYRPPRLPRPRPRPYWRPRP,0.0608
22,RRIRFRPPRLPRPRPRPCMWPRP,-0.258
23,RRIRKRPPRLPRPRPRPEQEPRP,0.408
24,RRIRERPPRLPRPRPRPRCEPRP,0.0736
25,RRIRDRPPRLPRPRPRPMTPPRP,-0.0805
26,RRIRRRPPRLPRPRPRPEHMPRP,0.14
27,RRIRMRPPRLPRPRPRPSDFPRP,-0.764

row,Sequence,shrunken log2 fold change
1,RRIRFRPPRLPRPRPRPIWKPRP,0.248
2,RRIRMRPPRLPRPRPRPMLNPRP,-0.0171
3,RRIRPRPPRLPRPRPRPFDEPRP,-0.0622
4,RRIRRRPPRLPRPRPRPESWPRP,1.12
5,RRIRCRPPRLPRPRPRPKHHPRP,-0.32
6,RRIRPRPPRLPRPRPRPAMTPRP,-0.085
7,RRIRQRPPRLPRPRPRPWDDPRP,-0.00146
8,RRIRKRPPRLPRPRPRPHSFPRP,-0.0644
9,RRIRVRPPRLPRPRPRPWDHPRP,-0.103
10,RRIRPRPPRLPRPRPRPDCDPRP,0.0888
11,RRIRYRPPRLPRPRPRPEPCPRP,0.189
12,RRIRKRPPRLPRPRPRPDDDPRP,3.89
13,RRIRHRPPRLPRPRPRPQIAPRP,-0.103
14,RRIRGRPPRLPRPRPRPEYHPRP,0.155
15,RRIRSRPPRLPRPRPRPPTGPRP,0.369
16,RRIRYRPPRLPRPRPRPIQWPRP,-0.00101
17,RRIRNRPPRLPRPRPRPVEFPRP,-0.00441
18,RRIRRRPPRLPRPRPRPPTDPRP,0.709
19,RRIRKRPPRLPRPRPRPEELPRP,2.77
20,RRIRYRPPRLPRPRPRPFELPRP,-0.529
21,RRIRGRPPRLPRPRPRPSLMPRP,0.5
22,RRIRVRPPRLPRPRPRPPGFPRP,0.842
23,RRIRQRPPRLPRPRPRPGMGPRP,0.33
24,RRIRVRPPRLPRPRPRPHGNPRP,-0.0331
25,RRIRARPPRLPRPRPRPKHYPRP,-0.277
26,RRIRPRPPRLPRPRPRPPQQPRP,0.345
27,RRIRPRPPRLPRPRPRPLDHPRP,-0.114
